Experimental findings from patent US20090312251 are described below.

Data set [1] addresses His-YAP-SA (recombinant hexahistidine-tagged YAP serine to alanine mutant, pET-15b).
Data set [2] deals with YAP S127A mutant (human YAP, transfected, Flag- or HA-tagged).

B1: LATS2 (human cDNA, GenBank Accession No. NP-055387.2, Flag- or HA-tagged) (protein)
chain: MRPKTFPATTYSGNSRQRLQEIREGLKQPSKSSVQGLPAGPNSDTSLDAKVLGSKDATRQQQQMRATPKFGPYQKALREIRYSLLPFANESGTSAAAEVNRQMLQELVNAGCDQEMAGRALKQTGSRSIEAALEYISKMGYLDPRNEQIVRVIKQTSPGKGLMPTPVTRRPSFEGTGDSFASYHQLSGTPYEGPSFGADGPTALEEMPRPYVDYLFPGVGPHGPGHQHQHPPKGYGASVEAAGAHFPLQGAHYGRPHLLVPGEPLGYGVQRSPSFQSKTPPETGGYASLPTKGQGGPPGAGLAFPPPAAGLYVPHPHHKQAGPAAHQLHVLGSRSQVFASDSPPQSLLTPSRNSLNVDLYELGSTSVQQWPAATLARRDSLQKPGLEAPPRAHVAFRPDCPVPSRTNSFNSHQPRPGPPGKAEPSLPAPNTVTAVTAAHILHPVKSVRVLRPEPQTAVGPSHPAWVPAPAPAPAPAPAPAAEGLDAKEEHALALGGAGAFPLDVEYGGPDRRCPPPPYPKHLLLRSKSEQYDLDSLCAGMEQSLRAGPNEPEGGDKSRKSAKGDKGGKDKKQIQTSPVPVRKNSRDEEKRESRIKSYSPYAFKFFMEQHVENVIKTYQQKVNRRLQLEQEMAKAGLCEAEQEQMRKILYQKESNYNRLKRAKMDKSMFVKIKTLGIGAFGEVCLACKVDTHALYAMKTLRKKDVLNRNQVAHVKAERDILAEADNEWVVKLYYSFQDKDSLYFVMDYIPGGDMMSLLIRMEVFPEHLARFYIAELTLAIESVHKMGFIHRDIKPDNILIDLDGHIKLTDFGLCTGFRWTHNSKYYQKGSHVRQDSMEPSDLWDDVSNCRCGDRLKTLEQRARKQHQRCLAHSLVGTPNYIAPEVLLRKGYTQLCDWWSVGVILFEMLVGQPPFLAPTPTETQLKVINWENTLHIPAQVKLSPEARDLITKLCCSADHRLGRNGADDLKAHPFFSAIDFSSDIRKQPAPYVPTISHPMDTSNFDPVDEESPWNDASEGSTKAWDTLTSPNNKHPEHAFYEFTFRRFFDDNGYPFRCPKPSGAEASQAESSDLESSDLVDQTEGCQPVYV
On to B1, for which, in data set [1], the “in-vitro kinase assay, 32P-labeled YAP by autoradiography” value is reported as “markedly reduced levels of phosphorylation of YAP S127A mutant by LATS1/2”. The “phosphorylation of YAP in co-transfected WW45-deficient keratinocytes (Western blot)” value in data set [2] is reported as “only the S127A mutant was not phosphorylated by activated LATS2 in cells”.

B2: LATS1 (human cDNA, GenBank Accession No. NP-004681.1, Flag- or HA-tagged) (protein)
chain: MKRSEKPEGYRQMRPKTFPASNYTVSSRQMLQEIRESLRNLSKPSDAAKAEHNMSKMSTEDPRQVRNPPKFGTHHKALQEIRNSLLPFANETNSSRSTSEVNPQMLQDLQAAGFDEDMVIQALQKTNNRSIEAAIEFISKMSYQDPRREQMAAAAARPINASMKPGNVQQSVNRKQSWKGSKESLVPQRHGPPLGESVAYHSESPNSQTDVGRPLSGSGISAFVQAHPSNGQRVNPPPPPQVRSVTPPPPPRGQTPPPRGTTPPPPSWEPNSQTKRYSGNMEYVISRISPVPPGAWQEGYPPPPLNTSPMNPPNQGQRGISSVPVGRQPIIMQSSSKFNFPSGRPGMQNGTGQTDFMIHQNVVPAGTVNRQPPPPYPLTAANGQSPSALQTGGSAAPSSYTNGSIPQSMMVPNRNSHNMELYNISVPGLQTNWPQSSSAPAQSSPSSGHEIPTWQPNIPVRSNSFNNPLGNRASHSANSQPSATTVTAITPAPIQQPVKSMRVLKPELQTALAPTHPSWIPQPIQTVQPSPFPEGTASNVTVMPPVAEAPNYQGPPPPYPKHLLHQNPSVPPYESISKPSKEDQPSLPKEDESEKSYENVDSGDKEKKQITTSPITVRKNKKDEERRESRIQSYSPQAFKFFMEQHVENVLKSHQQRLHRKKQLENEMMRVGLSQDAQDQMRKMLCQKESNYIRLKRAKMDKSMFVKIKTLGIGAFGEVCLARKVDTKALYATKTLRKKDVLLRNQVAHVKAERDILAEADNEWVVRLYYSFQDKDNLYFVMDYIPGGDMMSLLIRMGIFPESLARFYIAELTCAVESVHKMGFIHRDIKPDNILIDRDGHIKLTDFGLCTGFRWTHDSKYYQSGDHPRQDSMDFSNEWGDPSSCRCGDRLKPLERRAARQHQRCLAHSLVGTPNYIAPEVLLRTGYTQLCDWWSVGVILFEMLVGQPPFLAQTPLETQMKVINWQTSLHIPPQAKLSPEASDLIIKLCRGPEDRLGKNGADEIKAHPFFKTIDFSSDLRQQSASYIPKITHPTDTSNFDPVDPDKLWSDDNEEENVNDTLNGWYKNGKHPEHAFYEFTFRRFFDDNGYPYNYPKPIEYEYINSQGSEQQSDEDDQNTGSEIKNRDLVYV
For the protein B2, the “in-vitro kinase assay, 32P-labeled YAP by autoradiography” value in data set [1] is “markedly reduced levels of phosphorylation of YAP S127A mutant by LATS1/2”.
